The data set deals with Cdc13 full-length (FL) (Saccharomyces cerevisiae, UniProt P32797 1-924). Briefly: fluorescence anisotropy. In general terms: In fluorescence polarisation assays a small probe gives low polarisation when free and higher when bound to something large.
Chain of Cdc13 full-length (FL) (P32797 whole entry): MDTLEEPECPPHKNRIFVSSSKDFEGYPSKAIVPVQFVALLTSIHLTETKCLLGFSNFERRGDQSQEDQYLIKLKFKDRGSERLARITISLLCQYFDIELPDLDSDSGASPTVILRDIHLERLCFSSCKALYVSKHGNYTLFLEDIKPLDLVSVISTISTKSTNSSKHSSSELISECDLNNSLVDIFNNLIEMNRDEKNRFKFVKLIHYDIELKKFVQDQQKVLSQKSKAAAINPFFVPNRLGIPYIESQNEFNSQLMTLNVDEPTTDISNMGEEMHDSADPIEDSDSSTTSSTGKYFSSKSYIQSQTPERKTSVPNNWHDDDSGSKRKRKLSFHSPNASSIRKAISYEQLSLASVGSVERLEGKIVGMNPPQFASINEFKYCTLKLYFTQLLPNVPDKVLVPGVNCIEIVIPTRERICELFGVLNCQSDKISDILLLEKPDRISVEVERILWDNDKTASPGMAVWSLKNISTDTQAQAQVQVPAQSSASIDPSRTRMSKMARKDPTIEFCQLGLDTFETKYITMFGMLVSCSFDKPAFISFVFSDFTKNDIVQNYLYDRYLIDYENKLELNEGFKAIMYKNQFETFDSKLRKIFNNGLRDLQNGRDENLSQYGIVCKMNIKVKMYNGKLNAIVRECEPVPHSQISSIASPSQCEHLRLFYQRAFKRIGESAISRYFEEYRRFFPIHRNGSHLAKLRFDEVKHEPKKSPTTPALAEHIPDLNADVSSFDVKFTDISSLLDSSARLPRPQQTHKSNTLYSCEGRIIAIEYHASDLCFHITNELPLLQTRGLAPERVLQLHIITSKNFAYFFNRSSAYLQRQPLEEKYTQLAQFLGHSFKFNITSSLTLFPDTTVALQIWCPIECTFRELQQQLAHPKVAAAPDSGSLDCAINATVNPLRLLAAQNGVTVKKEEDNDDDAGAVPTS

B1: 7-base 3'-overhang telomeric DNA (mixed)
DNA: GTGGGTGTGTGTGTGGGGTGGTGTGTGTGG
?: CACCACCCCACACACACACCCAC
Take B1: the binding result is reported as “no binding”.
